What was measured:
Details in all cases: remark: other sources report otherwise
[1] = molecular target: full-length wild-type APOBEC3G (human), Q9HC16; assay: SEC-SAXS; A3Gfl 2.5 mg/mL with the 40-mer ssDNA CCdZ-T30-oligo at a 1 to 2 molar ratio; SEC-SAXS, 25 °C, 50 mM phosphate pH 6.0, 200 mM NaCl, 2 mM β-ME, 5% glycerol, 200 µM Na2-EDTA; Gaussian decomposition
[2] = molecular target: full-length wild-type APOBEC3G (human), Q9HC16; assay: SEC-SAXS; ligand-free A3Gfl; SEC (Superdex 200 Increase 5/150 GL) with co-flow SAXS, 25 °C, 2.5 mg/mL A3Gfl loaded (about 1.3 mg/mL after SEC), 50 mM phosphate pH 6.0, 200 mM NaCl, 2 mM β-ME, 5% glycerol, 200 µM Na2-EDTA; species separated by SVD/EFA and Gaussian decomposition
[3] = molecular target: full-length wild-type APOBEC3G (human), Q9HC16; assay: as above; remark: listed apart in the source

B1: full-length wild-type APOBEC3G, Q9HC16 1-384 (enzyme)
chain: MKPHFRNTVERMYRDTFSYNFYNRPILSRRNTVWLCYEVKTKGPSRPPLDAKIFRGQVYSELKYHPEMRFFHWFSKWRKLHRDQEYEVTWYISWSPCTKCTRDMATFLAEDPKVTLTIFVARLYYFWDPDYQEALRSLCQKRDGPRATMKIMNYDEFQHCWSKFVYSQRELFEPWNNLPKYYILLHIMLGEILRHSMDPPTFTFNFNNEPWVRGRHETYLCYEVERMHNDTWVLLNQRRGFLCNQAPHKHGFLEGRHAELCFLDVIPFWKLDLDQDYRVTCFTSWSPCFSCAQEMAKFISKNKHVSLCIFTARIYDDQGRCQEGLRTLAEAGAKISIMTYSEFKHCWDTFVDHQGCPFQPWDGLDEHSQDLSGRLRAILQNQEN
[1]
  stoichiometry N: 4
[2]
  stoichiometry N: 2
[3]
  stoichiometry N: 4
